Data from patent US20240084017A1 (ASCENDO BIOTECHNOLOGY, published 2024).
Changes are numbered by the printed parent chain. Each block holds one binder with its values, some of them ahead of it.

How the values were obtained:
[1] = molecular target: T1, human Mac-1 (integrin αMβ2, CD11b/CD18) (human, UniProt P11215 17-1152; P05107 23-769); assay: flow cytometry, HEK293/Mac-1 cells (clone 1-4), PBS (Mock)
Protocol: (§1) The HEK293/Mac-1 cells (clone1-4) were counted and washed twice with staining buffer (PBS containing 1% FBS, and 0.1% sodium azide). Cells were adjusted at a concentration of 1×10⁵ cells/ml in staining buffer and treated with/without 0.25 mM MnCl₂ (Sigma). Cells were treated with anti-Mac-1 antibodies and fluorescent conjugated anti-human IgG4 antibodies and incubated for 15 mins. After washing with the staining buffer, the cells were analyzed by flow cytometry. In some examples, these cells were treated with the antibodies (ICRF44, KIM127, m24, or isotype control) in the presence or absence 10 μg/ml anti-Mac-1 antibodies. The cells were then incubated at 37° C. for 30 min. After washing with the staining buffer, the cells were analyzed by flow cytometry.
(§2) TABLE II The anti-Mac-1 antibodies selectively bind to different statuses of human Mac-1. HEK293/Mac-1 cells (clone1-4) were incubated in PBS (Mock), or PBS/MnCl₂ (Mn²⁺). Binding of isotype control IgG, the CD11b specific mAb (ICRF44), the CD11b activation-sensing mAb (CBRM1/5), or the screened anti-Mac-1 antibody was detected using flow cytometry.

[2] = molecular target: T1, human Mac-1 (integrin αMβ2, CD11b/CD18); assay: flow cytometry, HEK293/Mac-1 cells (clone 1-4), PBS/MnCl2 (Mn2+)
Protocol: as §1, §2

[3] = molecular target: T1, human Mac-1 (integrin αMβ2, CD11b/CD18); assay: flow cytometry, HEK293/Mac-1 cells; MFI in PBS over MFI in PBS/MnCl2
Protocol: as §1, §2

[4] = molecular target: T1, human Mac-1 (integrin αMβ2, CD11b/CD18); assay: flow cytometry, HEK293/Mac-1 cells, PBS (Mock), 10 µg/ml of this antibody; binding of reporter mAb m24 read
Protocol: as §1
(§3) TABLE III The anti-Mac-1 antibodies can serve as agonist to enhance the conformational change of Mac-1. HEK293/Mac-1 cells (clone1-4) were incubated with 10 μg/ml anti-Mac-1 antibodies under the PBS (Mock) condition. Binding of KIM127 or m24 was detected using flow cytometry.

[5] = molecular target: T1, human Mac-1 (integrin αMβ2, CD11b/CD18); assay: flow cytometry, HEK293/Mac-1 cells, PBS (Mock), 10 µg/ml of this antibody; binding of reporter mAb KIM127 read
Protocol: as §1, §3

[6] = molecular target: T1, human Mac-1 (integrin αMβ2, CD11b/CD18); assay: flow cytometry, HEK293/Mac-1 cells, PBS/MnCl2 (Mn2+), 10 µg/ml of this antibody; binding of reporter mAb m24 read
Protocol: as §1
(§4) TABLE IV The anti-Mac-1 antibody can serve as an antagonist to reduce the conformational change of Mac-1. HEK293/Mac-1 cells (clone1-4) were incubated with 10 μg/ml anti-Mac-1 antibodies under the PBS/MnCl₂ (Mn²⁺) condition. Binding of KIM127 or m24 was detected using flow cytometry.

[7] = molecular target: T1, human Mac-1 (integrin αMβ2, CD11b/CD18); assay: flow cytometry, HEK293/Mac-1 cells, PBS/MnCl2 (Mn2+), 10 µg/ml of this antibody; binding of reporter mAb KIM127 read
Protocol: as §1, §4

[8] = molecular target: T2, mouse Mac-1 (mouse, UniProt P05555 17-1153; P11835 24-771); assay: flow cytometry, Raw 264.7 cells
T2 construct: whole, on cells; also called Raw264.7
T2 sequence (P05555 17-1153, chain 1 of 2): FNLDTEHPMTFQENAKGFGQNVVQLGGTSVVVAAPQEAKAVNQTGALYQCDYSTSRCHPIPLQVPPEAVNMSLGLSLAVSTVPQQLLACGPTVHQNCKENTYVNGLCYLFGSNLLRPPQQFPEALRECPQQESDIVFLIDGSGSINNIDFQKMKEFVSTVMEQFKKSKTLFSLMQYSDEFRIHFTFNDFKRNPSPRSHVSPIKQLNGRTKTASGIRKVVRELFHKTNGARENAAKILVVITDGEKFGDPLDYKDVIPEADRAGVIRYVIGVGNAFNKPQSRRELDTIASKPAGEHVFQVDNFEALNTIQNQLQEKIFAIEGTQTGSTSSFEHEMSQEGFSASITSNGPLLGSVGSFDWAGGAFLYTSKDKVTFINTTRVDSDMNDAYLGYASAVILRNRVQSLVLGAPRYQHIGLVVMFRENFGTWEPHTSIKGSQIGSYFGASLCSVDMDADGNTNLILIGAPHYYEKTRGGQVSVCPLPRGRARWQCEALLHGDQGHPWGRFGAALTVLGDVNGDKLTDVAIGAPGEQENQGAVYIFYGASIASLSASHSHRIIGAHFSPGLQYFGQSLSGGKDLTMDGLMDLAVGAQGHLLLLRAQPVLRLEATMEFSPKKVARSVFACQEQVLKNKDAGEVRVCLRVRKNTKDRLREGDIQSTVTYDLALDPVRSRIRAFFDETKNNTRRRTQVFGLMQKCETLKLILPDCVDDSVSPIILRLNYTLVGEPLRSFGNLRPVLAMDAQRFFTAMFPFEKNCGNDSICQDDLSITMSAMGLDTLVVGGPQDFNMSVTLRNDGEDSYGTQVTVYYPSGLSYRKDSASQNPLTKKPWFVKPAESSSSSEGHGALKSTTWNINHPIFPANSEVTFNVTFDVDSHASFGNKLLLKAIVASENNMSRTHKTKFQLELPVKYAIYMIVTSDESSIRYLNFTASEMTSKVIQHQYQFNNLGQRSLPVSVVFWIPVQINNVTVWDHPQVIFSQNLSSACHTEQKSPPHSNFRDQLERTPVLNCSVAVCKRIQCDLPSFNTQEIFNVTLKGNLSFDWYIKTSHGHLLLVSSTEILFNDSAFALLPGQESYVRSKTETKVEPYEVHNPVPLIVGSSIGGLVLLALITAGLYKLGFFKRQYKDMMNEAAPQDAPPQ
T2 sequence (P11835 24-771, chain 2 of 2): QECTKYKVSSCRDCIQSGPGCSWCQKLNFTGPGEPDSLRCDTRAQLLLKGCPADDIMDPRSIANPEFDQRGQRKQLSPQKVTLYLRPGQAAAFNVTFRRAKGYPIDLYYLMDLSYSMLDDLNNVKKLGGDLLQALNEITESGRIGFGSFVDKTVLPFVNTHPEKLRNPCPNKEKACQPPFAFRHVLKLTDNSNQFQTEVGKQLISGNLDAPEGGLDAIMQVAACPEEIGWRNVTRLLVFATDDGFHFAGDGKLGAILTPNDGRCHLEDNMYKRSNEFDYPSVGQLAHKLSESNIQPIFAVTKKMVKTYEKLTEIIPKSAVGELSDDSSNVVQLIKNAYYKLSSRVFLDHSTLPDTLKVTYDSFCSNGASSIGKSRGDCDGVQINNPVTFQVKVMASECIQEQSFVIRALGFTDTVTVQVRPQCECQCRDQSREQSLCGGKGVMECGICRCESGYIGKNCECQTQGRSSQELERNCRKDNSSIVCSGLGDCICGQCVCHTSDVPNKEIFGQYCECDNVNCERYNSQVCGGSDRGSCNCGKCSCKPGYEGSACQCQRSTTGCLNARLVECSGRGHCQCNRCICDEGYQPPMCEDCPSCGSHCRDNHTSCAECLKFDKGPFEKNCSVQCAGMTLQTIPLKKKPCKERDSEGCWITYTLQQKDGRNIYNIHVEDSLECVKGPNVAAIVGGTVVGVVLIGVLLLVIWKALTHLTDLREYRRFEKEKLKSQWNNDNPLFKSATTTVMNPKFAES

B1: anti-Mac-1 antibody clone 27E12 (antibody, human IgG4, V domains shown)
VH: QVQLQQSGTVLARPGASVKMSCKASGYTFTSYWMHWVKQRPGQGLEWIGAIYPGNSDTSYNQKFKGKAKLTAVTSASTAYMELSSLTNEDSAVYYCTRGGGSYEFAYWGQGTTVTVSS
VL: DIELTQSPAIMSASPGEKVTMTCSVSSSVSYMYWYQQKPGSSPRLLIYDTSNLASGVPARFSGSGSGTSYSLTISSMEAEDAATYYCQQWSSNPFTFGSGTKLEIK
Mock MFI [1]: 56800 MFI
Mn^2+ MFI [2]: 50800 MFI
Mock/Mn^2+ Ratio [3]: 1.12
m24 (Expression relative to IgG4) [4]: 0.64 relative to IgG4
KIM127 (Expression relative to IgG4) [5]: 1 relative to IgG4
m24 (Expression relative to IgG4) [6]: 0.85 relative to IgG4
KIM127 (Expression relative to IgG4) [7]: 0.71 relative to IgG4

B2: anti-Mac-1 antibody clone 28D06 (antibody, human IgG4, V domains shown)
VH: QVKLQQSGPELVKPGASVKISCKASGYSFTDYNMNWVKQSNGKSLEWIGEINPNYGTTRYNQKFKGKATLTVDQSSSTAYMQLNSLTSEDSAVYYCARPSIYYDYDDAMDYWGQGTTVTVSS
VL: DIELTQSPAIMSASPGEKVTMTCSASSSVNYMYWYQQKPGSSPRLLIYDTSNLASGVPVRFSGSGSGTSYSLTISRMEAEDAATYYCQQWITYPPTLTFGAGTKLEIK
Mock MFI [1]: 51800 MFI
Mn^2+ MFI [2]: 30600 MFI
Mock/Mn^2+ Ratio [3]: 1.69
m24 (Expression relative to IgG4) [4]: 0.65 relative to IgG4
KIM127 (Expression relative to IgG4) [5]: 0.99 relative to IgG4
m24 (Expression relative to IgG4) [6]: 0.62 relative to IgG4
KIM127 (Expression relative to IgG4) [7]: 0.69 relative to IgG4

B4: anti-Mac-1 antibody clone 24F08 (antibody, human IgG4, V domains shown)
VH: EVQLVESGGGLVQPGGSLRLSCAASGFTFSSYWMSWVRQAPGKGLEWVSIINYSGREADYADSVKGRFTISRDNSKNTLYLQMNSLRAEDTAVYYCARDGSYVGQAHEAFDIWGQGTLVTVSS
VL: DIQMTQSPSSLSASVGDRVTITCRASQSISKYLAWYQQKPGKAPKLLIYGTSNLQSGVPSRFSGSGSGTDFTLTISSLQPEDFATYYCQQSRSWPLTFGQGTKVEIK
Mock MFI [1]: 50000 MFI
Mn^2+ MFI [2]: 42100 MFI
Mock/Mn^2+ Ratio [3]: 1.19
m24 (Expression relative to IgG4) [4]: 21.2 relative to IgG4
KIM127 (Expression relative to IgG4) [5]: 2.17 relative to IgG4
m24 (Expression relative to IgG4) [6]: 4.01 relative to IgG4
KIM127 (Expression relative to IgG4) [7]: 1.73 relative to IgG4

B5: anti-Mac-1 antibody clone 24F09 (antibody, human IgG4, V domains shown)
VH: EVQLVESGGGLVQPGGSLRLSCAASGFTFSSAWMSWVRQAPGKGLEWVSTIYWSGSEINYADSVKGRFTISRDNSKNTLYLQMNSLRAEDTAVYYCARSFASGESAMDVWGQGTLVTVSS
VL: B4 VL with K31N, G50D, T51A, S91Y, R92Y, W94S, L96P
notes: also called 24F9
Mock MFI [1]: 39800 MFI
Mn^2+ MFI [2]: 33900 MFI
Mock/Mn^2+ Ratio [3]: 1.17
m24 (Expression relative to IgG4) [4]: 19.1 relative to IgG4
KIM127 (Expression relative to IgG4) [5]: 2.05 relative to IgG4
m24 (Expression relative to IgG4) [6]: 4.01 relative to IgG4
KIM127 (Expression relative to IgG4) [7]: 1.71 relative to IgG4

B7: anti-Mac-1 antibody clone 24G05 (antibody, human IgG4, V domains shown)
VH: EVQLVESGGGLVQPGGSLRLSCAASGFTFTSYWMTWVRQAPGKGLEWVSTIVGGGGEADYADSVKGRFTISRDNSKNTLYLQMNSLRAEDTAVYYCARDYVADNHGAMDYWGQGTLVTVSS
VL: DIQMTQSPSSLSASVGDRVTITCRASQGLSSYLNWYQQKPGKAPKLLIYGMSTLQSGVPSRFSGSGSGTDFTLTISSLQPEDFATYYCMQYYHWPYTFGQGTKVEIK
Mock MFI [1]: 55900 MFI
Mn^2+ MFI [2]: 44800 MFI
Mock/Mn^2+ Ratio [3]: 1.25
m24 (Expression relative to IgG4) [4]: 25 relative to IgG4
KIM127 (Expression relative to IgG4) [5]: 2.22 relative to IgG4
m24 (Expression relative to IgG4) [6]: 3.85 relative to IgG4
KIM127 (Expression relative to IgG4) [7]: 1.64 relative to IgG4

B8: anti-Mac-1 antibody clone DF4-25 (antibody, human IgG4, V domains shown)
VH: EVQLVESGGGLVQPGGSLRLSCAASGFTFKDYWLSWVRQAPGKGLEWVSIINYGGSETYYADSVKGRFTISRDNSKNTLYLQMNSLRAEDTAVYYCARTQTSYVMDYWGQGTLVTVSS
VL: DIQMTQSPSSLSASVGDRVTITCRASQSVRSGLNWYQQKPGKAPKLLIYAASSLQSGVPRRFSGSGSGTDFTLTISSLQPEDFATYYCMQSHSWPLTFGQGTKVEIK
Mock MFI [1]: 35700 MFI
Mn^2+ MFI [2]: 30500 MFI
Mock/Mn^2+ Ratio [3]: 1.17
m24 (Expression relative to IgG4) [4]: 24 relative to IgG4
KIM127 (Expression relative to IgG4) [5]: 2.23 relative to IgG4
m24 (Expression relative to IgG4) [6]: 4.34 relative to IgG4
KIM127 (Expression relative to IgG4) [7]: 1.75 relative to IgG4

Further lines, results first:

binding result [8]: binds
Mock MFI [1]: 34600 MFI
Mn^2+ MFI [2]: 52500 MFI
Mock/Mn^2+ Ratio [3]: 0.66
m24 (Expression relative to IgG4) [4]: 28.4 relative to IgG4
KIM127 (Expression relative to IgG4) [5]: 2.49 relative to IgG4
m24 (Expression relative to IgG4) [6]: 4.4 relative to IgG4
KIM127 (Expression relative to IgG4) [7]: 1.68 relative to IgG4
B3: anti-Mac-1 antibody clone DF3M-5 (antibody, human IgG4, V domains shown)
VH: EVQLVESGGGLVQPGGSLRLSCAASGFTFGTYDMHWVRQAPGKGLEWVSMISPSGGDTYYADSVKGRFTISRDNSKNTLYLQMNSLRAEDTAVYYCARDSSGDWYAMAYWGQGTLVTVSS
VL: B4 VL with S30R, K31R, T51A, Q90H, R92S, S93D, W94T

Mock MFI [1]: 41600 MFI
Mn^2+ MFI [2]: 45700 MFI
Mock/Mn^2+ Ratio [3]: 0.91
m24 (Expression relative to IgG4) [4]: 0.44 relative to IgG4
KIM127 (Expression relative to IgG4) [5]: 1.11 relative to IgG4
m24 (Expression relative to IgG4) [6]: 0.23 relative to IgG4
KIM127 (Expression relative to IgG4) [7]: 0.63 relative to IgG4
B6: anti-Mac-1 antibody clone H4L2 (antibody, human IgG4, V domains shown)
VH: QVQLVQSGAEVKKPGASVKVSCKASGYTFTNYWINWVRQAPGQRLEWMGNIYPSDTYINHNQKFKDRVTITRDTSASTAYMELSSLRSEDTAVYYCARSAYANYFDYWGQGTLVTVSS
VL: EIVMTQSPATLSVSPGERATLSCRASQNIGTSIHWYQQKPGQAPRLLIYYASESISGIPARFSGSGSGTEFTLTISSLQSEDFAVYYCQQSDSWPTLTFGQGTKLEIK

binding result [8]: binds
Mock MFI [1]: 108000 MFI
Mn^2+ MFI [2]: 107000 MFI
Mock/Mn^2+ Ratio [3]: 1.01
m24 (Expression relative to IgG4) [4]: 0.88 relative to IgG4
KIM127 (Expression relative to IgG4) [5]: 1.09 relative to IgG4
m24 (Expression relative to IgG4) [6]: 0.83 relative to IgG4
KIM127 (Expression relative to IgG4) [7]: 0.81 relative to IgG4
B9: anti-Mac-1 antibody clone m2396 (antibody, human IgG4, V domains shown)
VH: QVQLQESGPGLVKPSETLSLTCTVSGFSLTSNSISWVRQPPGKGLEWMGAIWSGGGTDYNPSLKSRLTISRDTSKSQVFLKMSSLTAADTAIYFCTRGGYPYYFDYWGQGVLVTVSS
VL: DIVMTQSPDSLAVSLGERVTINCKSSQSLLYSENQENYLAWYQQKPGQSPKLLIYWASTRQSGVPDRFSGSGSGTDFTLTISSVQAEDLAIYYCQQYYDTPLTFGGGTKLEIK
